Test results published in patent EP4659810A1.

Tests used:
[1] = biological target: VP1 pentamer of BKV genotype I (truncated VP1, residues 31 to 301, C104S) (BK virus genotype I (Dunlop sequence)) (UniProt P03088); assay: BLI (OctetRED96e), biotinylated VP1 pentamer on streptavidin sensor, mAb 0 to 40 nM in solution
[2] = biological target: VP1 on BKV genotype Ia pseudovirions (BK-D; JF894228) (BK virus genotype Ia (BK-D; JF894228)) (UniProt P03088); assay: cell-based or functional assay
[3] = biological target: VP1 on entire replicative virions of BK virus genotype Ia (Dunlop strain; ATCC VR-837) (BK virus genotype Ia (Dunlop strain)) (UniProt P03088); assay: cell-based or functional assay
[4] = biological target: VP1 on BKV genotype II pseudovirions (GBR-12; AB263920) (BK virus genotype II (GBR-12; AB263920)) (UniProt P14996); assay: cell-based or functional assay
[5] = biological target: VP1 on entire replicative virions of BKV genotype II (patient's isolate) (BK virus genotype II); assay: cell-based or functional assay

Sequence of MTX005 from Memo Therapeutics AG (referred as 319C07 in WO2021/250097) (antibody) (VH): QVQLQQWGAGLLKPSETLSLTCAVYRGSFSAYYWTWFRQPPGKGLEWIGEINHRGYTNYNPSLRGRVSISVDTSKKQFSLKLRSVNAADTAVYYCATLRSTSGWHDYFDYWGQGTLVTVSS
Sequence of MTX005 from Memo Therapeutics AG (referred as 319C07 in WO2021/250097) (antibody) (VL): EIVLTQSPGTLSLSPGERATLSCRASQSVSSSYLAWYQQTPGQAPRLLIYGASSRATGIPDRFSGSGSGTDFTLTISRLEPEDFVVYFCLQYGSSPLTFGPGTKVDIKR

MTX005 from Memo Therapeutics AG (referred as 319C07 in WO2021/250097) (antibody)
Kd [1]: 17.9 nM
IC50, neutralization of BKV pseudovirions (luciferase, 293TT cells) [2]: 0.03 ng/mL
IC50, neutralization of fully replicative BKV virions (MRC5 cells) [3]: 0.05 ng/mL
IC50, neutralization of BKV pseudovirions (luciferase, 293TT cells) [4]: 0.08 ng/mL
IC50, neutralization of fully replicative BKV virions (MRC5 cells) [5]: 0.03 ng/mL
